Assay results reported in paper PMC6981184.

Columns and labels:
[1] = target: soluble CD4 (UniProt P01730); test: SPR
[2] = target: BG505 N332 SOSIP gp140 envelope trimer (unmutated BG505 SOSIP) (HIV-1 (clade A, BG505)); test: negative-stain electron microscopy
[3] = target: soluble CD4 (sCD4) (UniProt P01730); test: SPR

Row | Substance | Kd [1] | stoichiometry N [2] | koff [3] | kon [3]
1 | BG505 N332 SOSIP gp140 envelope trimer (unmutated BG505 SOSIP) (complex) | 67.9 nM | 3 |  | 
2 | BG505 SOSIP.664 (unmutated BG505 N332 SOSIP gp140 trimer) (complex) |  |  | 0.00061 s⁻¹ | 11200 M⁻¹ s⁻¹
